“Also recorded” adds a separate entry of the source. No end group written: not given here.

What all share (type): cell-based, Human
For series [1], the system named is MCF7 cells. Nature of the series: Internalized fluorescent peptide by flow cytometry. The settings on record: MCF7, FITC-labeled peptides 30 μM, 30 min at 37°C, washed, trypsinized, mean of three independent experiments, Figure 6B. Here is the method: (§1) Figure 6 The un-tagged HEXIM1 BR peptide fails to enter cells by itself (A) MCF7 cells were cultured on glass slides overnight before incubation with the indicated FITC-labeled peptides (30 μM) for 30 min and subsequently analyzed by laser scanning confocal microscopy. Nuclei were visualized by DAPI. Cells treated with vehicle, DMSO (0.5%) were used as control. Representative fluorescent images are shown (bar, 10 μm). (B) The FITC-positive cells were quantified by flow cytometry. Data represent percentage of fluorescence-positive cells in total cell population. Results were summarized as mean ± SD of three independent experiments (***P < 0.0001, Student's t test).
MCF7 cells were plated on 6-cm culture dish to allow overnight adherence. FITC-labeled peptides (30 μM) were added to the cells, incubated for 30 min at 37°C, and subsequently washed three times with PBS. The cells were then trypsinized, collected by centrifugation, and finally resuspended in 500 μl ice-cold 2% FBS-containing PBS for flow cytometry analysis.
Background: Flow cytometry measures light scatter and fluorescence of single cells or particles in a stream.

The subject of series [2] is MCF7 cells. Nature of the series: Internalization and intracellular distribution of FITC-labeled peptides, confocal microscopy. As to conditions: MCF7, FITC-labeled peptides 30 μM, 30 min, washed three times with PBS, Figure 6A. As for the experimental part:
as §1
To determine the ability of FITC-labeled peptides to enter the cells and to visualize intracellular distribution of the peptides, MCF7 cells were plated on 4-chamber glass cover slides (Lab-Tek) to adhere overnight, incubated with FITC-labeled peptides (30 μM) for 30 min, and then washed three times with PBS before being fixed and mounted with DAPI-containing mounting solution (Vectashield). Images were acquired using a Nikon A1R confocal laser scanning microscope equipped with a 60 × oil-immersion objective lens (SBIC-Nikon Imaging Centre).

Series [3] concerns MCF7 cells. Nature of the series: Cell viability (CellTiter-Glo). The settings on record: MCF7, different concentrations overnight, Figure 5A, 5C. Here is the method:
(§2) Cells were plated in clear-bottomed white walled 96-well plates (Corning) and incubated overnight. Cells were treated with indicated peptides in 1% FBS-containing media for overnight or indicated timings at 37°C. Cell viability was measured with CellTiter-Glo reagent (Promega) according to the manufacturer's instructions. For cytotoxicity assay, cells were plated in black walled 96-well plates (Corning) to allow them to adhere overnight. Upon treatment with a pan-caspase inhibitor, z-VAD-Fmk (100 μM) (Sigma) and subsequent treatment with LTV-tagged peptides, cytotoxicity induced was determined by CellTox cytotoxicity assay (Promega) 30 minutes after addition of peptides according to the manufacturer's instructions. Luminescence was determined using an Infinite 200 multiplate reader (Tecan).

The subject of series [4] is MDA-MB-231 cells. Nature of the series: Cell viability (CellTiter-Glo). The settings on record: MDA-MB-231, different concentrations overnight, Figure 5B, 5D, S2. Here is the method: as §2
Background: In ATP-based viability assays light output follows the ATP content of the culture.

“BR-FITC: fluorescent-labeled (FITC) BR peptide (QLGKKKHRRRPSKKKRHW; also: FITC label; UniProt O94992 147-164, looked up, fragment)”: the “percentage of fluorescence-positive cells in total cell population (internalized fluorescent peptide)” value in series [1] is listed as “no entry”. Also, the “internalization and intracellular distribution of fluorescent-labeled peptide” value in series [2] is reported as “no fluorescent signal was observed”.
Turning to “BR: untagged peptide from the basic region of HEXIM1 containing the HDM2 ubiquitination residues (a.a. 147–164) (QLGKKKHRRRPSKKKRHW; UniProt O94992 147-164, looked up, fragment)”, the cell viability entry is “had no effect on cell viability” in series [3] and “had no effect on cell viability; also recorded: remained highly viable” in series [4].

These data come from publication PMC4868700, “Use of a novel cytotoxic HEXIM1 peptide in the directed breast cancer therapy” (Oncotarget, 2015).
